What was measured:
recombinant human IL-6 [1] = target: T1, recombinant human IL-6 (human, UniProt P05231 30-212); test: SPR Biacore, cell supernatant dual inhibitor captured on Protein A, IL-6 analyte, 25 C
T1 construct: Analyte in the Biacore assays; also called interleukin-6
T1 sequence (P05231 30-212 limits assumed): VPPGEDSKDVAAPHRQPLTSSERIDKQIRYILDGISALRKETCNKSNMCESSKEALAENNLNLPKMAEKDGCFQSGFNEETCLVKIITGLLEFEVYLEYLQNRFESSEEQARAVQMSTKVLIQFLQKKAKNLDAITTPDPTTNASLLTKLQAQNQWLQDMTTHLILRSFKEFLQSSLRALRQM

recombinant human IL-6 [2] = target: T1, recombinant human IL-6; test: SPR Biacore, purified dual inhibitor captured on Protein A, IL-6 analyte, 37 C
recombinant human IL-6 [3] = target: T2, recombinant human IL-6 (human, UniProt P05231 30-212); test: Biacore, Fab lysate over IL-6 chip, 25 C
T2 construct: bought protein; also called interleukin-6
Experimental: Fab libraries were constructed containing random single point mutations for all 71 CDR positions, excluding substitutions for Cys, Met and Asn due to the chemical liabilities associated with these amino acids. Small-scale expression in 96 well plates format was utilized for screening the Fab libraries. E. coli colonies (TG1 cells, Zymo Research) containing randomized single point mutations were picked into 96 well plates (1.5 mL) and grown overnight at 30° C. in LB Amp+2% glucose. A separate 96 well plate was created on the following day by removing 100 μL of culture and adding 100 μL of 30% glycerol, then stored at −80° C. The remaining culture was spun down for 20 min and later resuspended in 1.5 mL of LB Amp containing 1 mM IPTG for induction of protein expression at 30° C. After 5 hours, cells were spun down, resuspended in 500 μL of HBS-EP+ buffer and lysed by one freeze/thaw cycle. Lysates were centrifuged for 30 minutes and vacuum filtered (200 μL) into round bottom 96 well plates for Biacore analysis.
Three ranges of antigen density (100-150 RU, 300-400 RU, 400-600 RU) were obtained by using variable flow times for each chip channel, later blocked with ethanolamine. Supernatants of the 96-well filtered culture lysates were injected at […] for 120 seconds. Fitting of dissociation curves (300 seconds) to single exponential decay curve was used for the determination of dissociation rates (koff). Chip surfaces were regenerated with 10 mM Glycine pH 1.7 solution injected at 50 μL/min during 60 seconds after every cycle of sample binding and dissociation.
T2 sequence (P05231 30-212 limits assumed): as above

recombinant human IL-6 [4] = target: T2, recombinant human IL-6; test: Biacore, antibody captured on Protein A, IL-6 as analyte
Experimental: Antibodies were captured on a Protein A chip (GE) by injecting 1:20 cell supernatant dilutions at 10 μL/min for 60 seconds. […] The sensor chip was regenerated by a 60 seconds injection of 10 mM Glycine pH 1.7 at the flow rate of […]. […] For this setup, 1 μg/mL of purified antibody was injected over a Protein A chip at 10 μL/min for 25 seconds. […] The sensor chip was regenerated by a 60 seconds injection of 10 mM Glycine pH 1.7 at flow rate of 50 μL/min. Data analysis for supernatant and purified samples were performed using BIAevaluation software (GE). All sensorgrams were double reference subtracted and fit using a 1:1 Langmuir binding model.

Row | Binder | koff (recombinant human IL-6 [3]) [s⁻¹] | binding result (recombinant human IL-6 [4]) | other results
1 | dual inhibitor variant L of Table 2.1 (AntiIL-6-VEGF Trap) (other, Antibody-VEGF trap fusion, trap between Fab and Fc of the heavy chain (VH variant II); also called molecule L) heavy: EVQLVESGGGLVQPGGSLRLSCAASGFTFSPFAWSWVRQAPGKGLEWVAKISPGGSWTYYSDTVTDRFTFSLDTSKSTAYLQMNSLRAEDTAVYYCARQLWGYYALDVWGQGTLVTVSSASTKGPSVFPLAPSSKSTSGGTAALGCLVKDYFPEPVTVSWNSGALTSGVHTFPAVLQSSGLYSLSSVVTVPSSSLGTQTYICNVNHKPSNTKVDKKVEPKSCGGGGSGGGGSSDTGRPFVEMYSEIPEIIHMTEGRELVIPCRVTSPNITVTLKKFPLDTLIPDGKRIIWDSRKGFIISNATYKEIGLLTCEATVNGHLYKTNYLTHRQTNTIIDVVLSPSHGIELSVGEKLVLNCTARTELNVGIDFNWEYPSSKHQHKKLVNRDLKTQSGSEMKKFLSTLTIDGVTRSDQGLYTCAASSGLMTKKNSTFVRVHEKDKTHTCPPCPAPEAAGAPSVFLFPPKPKDTLMISRTPEVTCVVVDVSHEDPEVKFNWYVDGVEVHNAKTKPREEQYNSTYRVVSVLTVLHQDWLNGKEYKCKVSNKALPAPIEKTISKAKGQPREPQVYTLPPSREEMTKNQVSLTCLVKGFYPSDIAVEWESNGQPENNYKTTPPVLDSDGSFFLYSKLTVDKSRWQQGNVFSCSVMHEALHNHYTQKSLSCSPGK light: DIQLTQSPSSLSASVGDRVTITCSASISVSYLYWYQQKPGKAPKLLIYDDSNLASGVPSRFSGSGSGTDFTLTISSLQPEDFATYYCQQWSGYPYTFGQGTKVEIKRTVAAPSVFIFPPSDEQLKSGTASVVCLLNNFYPREAKVQWKVDNALQSGNSQESVTEQDSKDSTYSLSSTLTLSKADYEKHKVYACEVTHQGLSSPVTKSFNRGEC | – | – | Kd (recombinant human IL-6 [1]): 0.239 nM; koff (recombinant human IL-6 [1]): 0.000169 s⁻¹; kon (recombinant human IL-6 [1]): 705000 M⁻¹ s⁻¹; Kd (recombinant human IL-6 [2]): 0.436 nM; koff (recombinant human IL-6 [2]): 0.00065 s⁻¹; kon (recombinant human IL-6 [2]): 1.49e+06 M⁻¹ s⁻¹
2 | anti-IL-6 Fab, heavy chain S30G (Fab, V domains shown, built as m22 plus the named change) VH: EVQLVESGGGLVQPGGSLRLSCAASGFTFGPFAMSWVRQAPGKGLEWVAKISPGGSWTYYSDTVTGRFTFSLDTSKSTAYLQMNSLRAEDTAVYYCARQLWGYYALDIWGQGTLVTVSS VL: DIQLTQSPSSLSASVGDRVTITCSASISVSYMYWYQQKPGKAPKLLIYDMSNLASGVPSRFSGSGSGTDFTLTISSLQPEDFATYYCMQWSGYPYTFGQGTKVEIK | 0.00977 | – | –
3 | anti-IL-6 Fab, light chain V29L (Fab, V domains shown, built as m22 plus the named change) VH: EVQLVESGGGLVQPGGSLRLSCAASGFTFSPFAMSWVRQAPGKGLEWVAKISPGGSWTYYSDTVTGRFTFSLDTSKSTAYLQMNSLRAEDTAVYYCARQLWGYYALDIWGQGTLVTVSS VL: DIQLTQSPSSLSASVGDRVTITCSASISLSYMYWYQQKPGKAPKLLIYDMSNLASGVPSRFSGSGSGTDFTLTISSLQPEDFATYYCMQWSGYPYTFGQGTKVEIK | 0.00943 | – | –
4 | anti-IL-6 Fab, heavy chain S30W (Fab, V domains shown, built as m22 plus the named change) VH: EVQLVESGGGLVQPGGSLRLSCAASGFTFWPFAMSWVRQAPGKGLEWVAKISPGGSWTYYSDTVTGRFTFSLDTSKSTAYLQMNSLRAEDTAVYYCARQLWGYYALDIWGQGTLVTVSS VL: DIQLTQSPSSLSASVGDRVTITCSASISVSYMYWYQQKPGKAPKLLIYDMSNLASGVPSRFSGSGSGTDFTLTISSLQPEDFATYYCMQWSGYPYTFGQGTKVEIK | 0.00869 | – | –
5 | anti-IL-6 Fab, heavy chain S30V (Fab, V domains shown, built as m22 plus the named change) VH: EVQLVESGGGLVQPGGSLRLSCAASGFTFVPFAMSWVRQAPGKGLEWVAKISPGGSWTYYSDTVTGRFTFSLDTSKSTAYLQMNSLRAEDTAVYYCARQLWGYYALDIWGQGTLVTVSS VL: DIQLTQSPSSLSASVGDRVTITCSASISVSYMYWYQQKPGKAPKLLIYDMSNLASGVPSRFSGSGSGTDFTLTISSLQPEDFATYYCMQWSGYPYTFGQGTKVEIK | 0.00352 | – | –
6 | anti-IL-6 antibody, heavy chain variant I (M34I/G66D/I108V), light chain variant V (M32L/M50D/M88Q) (antibody, human IgG1, V domains shown, engineered human IgG1; also called I/V) VH: EVQLVESGGGLVQPGGSLRLSCAASGFTFSPFAISWVRQAPGKGLEWVAKISPGGSWTYYSDTVTDRFTFSLDTSKSTAYLQMNSLRAEDTAVYYCARQLWGYYALDVWGQGTLVTVSS VL: DIQLTQSPSSLSASVGDRVTITCSASISVSYLYWYQQKPGKAPKLLIYDDSNLASGVPSRFSGSGSGTDFTLTISSLQPEDFATYYCQQWSGYPYTFGQGTKVEIK | – | binds | –
7 | anti-IL-6 Fab, light chain S55T (Fab, V domains shown, built as m22 plus the named change) VH: EVQLVESGGGLVQPGGSLRLSCAASGFTFSPFAMSWVRQAPGKGLEWVAKISPGGSWTYYSDTVTGRFTFSLDTSKSTAYLQMNSLRAEDTAVYYCARQLWGYYALDIWGQGTLVTVSS VL: DIQLTQSPSSLSASVGDRVTITCSASISVSYMYWYQQKPGKAPKLLIYDMSNLATGVPSRFSGSGSGTDFTLTISSLQPEDFATYYCMQWSGYPYTFGQGTKVEIK | 0.0052 | – | –
8 | anti-IL-6 Fab, heavy chain Y103D (Fab, V domains shown, built as m22 plus the named change) VH: EVQLVESGGGLVQPGGSLRLSCAASGFTFSPFAMSWVRQAPGKGLEWVAKISPGGSWTYYSDTVTGRFTFSLDTSKSTAYLQMNSLRAEDTAVYYCARQLWGDYALDIWGQGTLVTVSS VL: DIQLTQSPSSLSASVGDRVTITCSASISVSYMYWYQQKPGKAPKLLIYDMSNLASGVPSRFSGSGSGTDFTLTISSLQPEDFATYYCMQWSGYPYTFGQGTKVEIK | 0.00503 | – | –
9 | anti-IL-6 Fab, light chain A54Y (Fab, V domains shown, built as m22 plus the named change) VH: EVQLVESGGGLVQPGGSLRLSCAASGFTFSPFAMSWVRQAPGKGLEWVAKISPGGSWTYYSDTVTGRFTFSLDTSKSTAYLQMNSLRAEDTAVYYCARQLWGYYALDIWGQGTLVTVSS VL: DIQLTQSPSSLSASVGDRVTITCSASISVSYMYWYQQKPGKAPKLLIYDMSNLYSGVPSRFSGSGSGTDFTLTISSLQPEDFATYYCMQWSGYPYTFGQGTKVEIK | 0.00529 | – | –
10 | anti-IL-6 Fab, light chain S55I (Fab, V domains shown, built as m22 plus the named change) VH: EVQLVESGGGLVQPGGSLRLSCAASGFTFSPFAMSWVRQAPGKGLEWVAKISPGGSWTYYSDTVTGRFTFSLDTSKSTAYLQMNSLRAEDTAVYYCARQLWGYYALDIWGQGTLVTVSS VL: DIQLTQSPSSLSASVGDRVTITCSASISVSYMYWYQQKPGKAPKLLIYDMSNLAIGVPSRFSGSGSGTDFTLTISSLQPEDFATYYCMQWSGYPYTFGQGTKVEIK | 0.005 | – | –

Further lines, with some results ahead:

Row | koff (recombinant human IL-6 [3]) [s⁻¹] | binding result (recombinant human IL-6 [4]) | Binder | other results
11 | – | binds | anti-IL-6 antibody, heavy chain variant II (M34W/G66D/I108V), light chain variant III (M32L/M50D/N52S/M88Q) (antibody, human IgG1, V domains shown, engineered human IgG1; also called II/III) VH: EVQLVESGGGLVQPGGSLRLSCAASGFTFSPFAWSWVRQAPGKGLEWVAKISPGGSWTYYSDTVTDRFTFSLDTSKSTAYLQMNSLRAEDTAVYYCARQLWGYYALDVWGQGTLVTVSS VL: DIQLTQSPSSLSASVGDRVTITCSASISVSYLYWYQQKPGKAPKLLIYDDSSLASGVPSRFSGSGSGTDFTLTISSLQPEDFATYYCQQWSGYPYTFGQGTKVEIK | –
12 | – | binds | anti-IL-6 antibody, heavy chain variant II (M34W/G66D/I108V), light chain variant V (M32L/M50D/M88Q) (antibody, human IgG1, V domains shown, engineered human IgG1; also called II/V) VH: EVQLVESGGGLVQPGGSLRLSCAASGFTFSPFAWSWVRQAPGKGLEWVAKISPGGSWTYYSDTVTDRFTFSLDTSKSTAYLQMNSLRAEDTAVYYCARQLWGYYALDVWGQGTLVTVSS VL: DIQLTQSPSSLSASVGDRVTITCSASISVSYLYWYQQKPGKAPKLLIYDDSNLASGVPSRFSGSGSGTDFTLTISSLQPEDFATYYCQQWSGYPYTFGQGTKVEIK | –
13 | – | binds | anti-IL-6 antibody, heavy chain variant II (M34W/G66D/I108V), light chain variant IV (M32L/M50A/N52S/M88Q) (antibody, human IgG1, V domains shown, engineered human IgG1; also called II/IV) VH: EVQLVESGGGLVQPGGSLRLSCAASGFTFSPFAWSWVRQAPGKGLEWVAKISPGGSWTYYSDTVTDRFTFSLDTSKSTAYLQMNSLRAEDTAVYYCARQLWGYYALDVWGQGTLVTVSS VL: DIQLTQSPSSLSASVGDRVTITCSASISVSYLYWYQQKPGKAPKLLIYDASSLASGVPSRFSGSGSGTDFTLTISSLQPEDFATYYCQQWSGYPYTFGQGTKVEIK | –
14 | – | binds | anti-IL-6 antibody, heavy chain variant I (M34I/G66D/I108V), light chain variant IV (M32L/M50A/N52S/M88Q) (antibody, human IgG1, V domains shown, engineered human IgG1; also called I/IV) VH: EVQLVESGGGLVQPGGSLRLSCAASGFTFSPFAISWVRQAPGKGLEWVAKISPGGSWTYYSDTVTDRFTFSLDTSKSTAYLQMNSLRAEDTAVYYCARQLWGYYALDVWGQGTLVTVSS VL: DIQLTQSPSSLSASVGDRVTITCSASISVSYLYWYQQKPGKAPKLLIYDASSLASGVPSRFSGSGSGTDFTLTISSLQPEDFATYYCQQWSGYPYTFGQGTKVEIK | –
15 | – | binds | anti-IL-6 antibody, heavy chain variant I (M34I/G66D/I108V), light chain variant III (M32L/M50D/N52S/M88Q) (antibody, human IgG1, V domains shown, engineered human IgG1; also called I/III) VH: EVQLVESGGGLVQPGGSLRLSCAASGFTFSPFAISWVRQAPGKGLEWVAKISPGGSWTYYSDTVTDRFTFSLDTSKSTAYLQMNSLRAEDTAVYYCARQLWGYYALDVWGQGTLVTVSS VL: DIQLTQSPSSLSASVGDRVTITCSASISVSYLYWYQQKPGKAPKLLIYDDSSLASGVPSRFSGSGSGTDFTLTISSLQPEDFATYYCQQWSGYPYTFGQGTKVEIK | –

Source: patent US20240368267A1 (KODIAK SCIENCES, published 2024)
